Source: doi:10.1101/2022.10.28.512841 (bioRxiv, 2022)

Target: the molecule itself
Experiment: SEC-SAXS

B1: gated spinach aquaporin SoPIP2;1 (natural protein)
chain: MSKEVSEEAQAHQHGKDYVDPPPAPFFDLGELKLWSFWRAAIAEFIATLLFLYITVATVIGHSKETVVCGSVGLLGIAWAFGGMIFVLVYCTAGISGGHINPAVTFGLFLARKVSLLRALVYMIAQCLGAICGVGLVKAFMKGPYNQFGGGANSVALGYNKGTALGAEIIGTFVLVYTVFSATDPKRSARDSHVPILAPLPIGFAVFMVHLATIPITGTGINPARSFGAAVIFNSNKVWDDQWIFWVGPFIGAAVAAAYHQYVLRAAAIKALGSFRSNPTN
B1: binds.
